Data on 1 substance can be found in paper PMC9527803.

The target of the test is baker's yeast alcohol dehydrogenase (baker's yeast) (UniProt P00330). Put plainly: native MS; nano-ESI from 0.2 mol/L ammonium acetate, protein 2 to 5 x 10^-6 mol/L, Q Exactive UHMR modified for deposition.

A word on the stoichiometry N: it is a count of units in the complex or per binding partner.

“baker's yeast alcohol dehydrogenase (from UniProt P00330 1-348) (enzyme)” came in with a stoichiometry N of 4.
